The values below come from article PMC7564666 (2020).

The labels stand for the following.
B1: GST-LASP1 (full length LIM and SH3 Protein 1, residues 1–261) [human] / argonaute 2 (Ago2), endogenous [human (endogenous in MDA-MB-231 variants 231S and Bone-Un)] (parent complex)
chain 1: MNPNCARCGKIVYPTEKVNCLDKFWHKACFHCETCKMTLNMKNYKGYEKKPYCNAHYPKQSFTMVADTPENLRLKQQSELQSQVRYKEEFEKNKGKGFSVVADTPELQRIKKTQDQISNIKYHEEFEKSRMGPSGGEGMEPERRDSQDGSSYRRPLEQQQPHHIPTSAPVYQQPQQQPVAQSYGGYKEPAAPVSIQRSAPGGGGKRYRAVYDYSAADEDEVSFQDGDTIVNVQQIDDGWMYGTVERTGDTGMLPANYVEAI
chain 2: not shown

One experiment covers variants of B1. Description: GST pull-down, immunoblot; 1 mg of Bone-Un LASP1-KO total lysate; 1.5 nmol of each of the double-mutants; parent: 1. On the technique in general: A western blot detects proteins with antibodies after separation by electrophoresis.
Consider chain 1 S146A, chain 1 Y171D, for which the ratio to parent worked out at 1.82.

As for chain 1 S146A, chain 1 Y171F, the ratio to parent is 1.29.

As for chain 1 S146D, chain 1 Y171D, the ratio to parent amounted to 0.9.

A further experiment covers variants of B1. Description: GST pull-down with purified proteins (direct binding), immunoblot; 100 ng of purified recombinant Ago2; 1.5 nmol of purified LASP1 double mutants; low exposure blot; parent: 1.
As for chain 1 S146A, chain 1 Y171D, the ratio to parent was 3.98.

Take chain 1 S146A, chain 1 Y171F: the ratio to parent was determined as 1.6.

Variants of B1 are the subject of a further experiment. Description: GST pull-down, immunoblot; 1 mg of Bone-Un LASP1 KO total lysate; 1.5 nmol of each LASP1 single-mutant protein; parent: 1.
Consider chain 1 Y171D, for which the ratio to parent is 5.

Regarding chain 1 Y171F, the ratio to parent came to 0.27.

For chain 1 S146A, the ratio to parent is 4.79.

On to chain 1 S146D, for which the ratio to parent came to 3.23.

A further experiment covers variants of B1. Briefly: GST pull-down with purified proteins (direct binding), immunoblot; 100 ng of purified recombinant Ago2; 1.5 nmol of each purified single-mutant protein; high exposure blot; parent: 1.
As for chain 1 Y171D, the ratio to parent came out at 0.61.

In the case of chain 1 Y171F, the ratio to parent worked out at 0.08.

Turning to chain 1 S146D, the ratio to parent stood at 0.39.

The variants in a further experiment derive from B1. Description: GST pull-down with purified proteins (direct binding), immunoblot; 100 ng of purified recombinant Ago2; 1.5 nmol of purified LASP1 double mutants; high exposure blot; parent: 1.
As to chain 1 S146D, chain 1 Y171D, the ratio to parent turned out to be 0.58.

Consider chain 1 S146D, chain 1 Y171F, for which the ratio to parent is 0.34.
